Read-outs that look alike come from different tables or passages of the source. Each block holds one molecule with its values, some of them ahead of it.
T1: Ec CdnC:HORMA complex (purified) (E. coli MS115-1, UniProt D7Y2H2 1-321; D7Y2H3 1-172)
T1 sequence (looked up) 1: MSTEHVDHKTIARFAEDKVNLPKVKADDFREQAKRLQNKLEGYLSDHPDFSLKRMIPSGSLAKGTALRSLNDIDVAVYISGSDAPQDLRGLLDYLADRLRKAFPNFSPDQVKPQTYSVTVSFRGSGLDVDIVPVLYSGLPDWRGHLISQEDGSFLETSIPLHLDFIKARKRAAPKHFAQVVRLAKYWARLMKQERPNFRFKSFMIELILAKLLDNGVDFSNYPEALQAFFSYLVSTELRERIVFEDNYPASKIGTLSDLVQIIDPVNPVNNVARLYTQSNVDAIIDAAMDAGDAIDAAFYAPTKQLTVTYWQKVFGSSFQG
T1 sequence (looked up) 2: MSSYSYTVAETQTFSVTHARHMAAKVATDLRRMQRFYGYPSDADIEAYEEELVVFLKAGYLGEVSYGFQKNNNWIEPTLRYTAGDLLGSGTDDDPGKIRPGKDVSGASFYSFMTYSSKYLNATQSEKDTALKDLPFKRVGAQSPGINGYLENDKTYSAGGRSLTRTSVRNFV

T2: Ec CdnC (purified, coexpressed with His6-HORMA) (E. coli MS115-1, UniProt D7Y2H2 1-321)
T2 sequence (looked up): T1 sequence (looked up) 1

B1: Ec Pch2^EQ (E159Q), purified hexamer (enzyme, E. coli MS115-1, UniProt D7Y2H4 1-311, looked up)
chain: MNVKPSLDELFERRINFPDFEPQERLARLVGLDEHKDRLSKILGLLVNPYGIQEWAKKYHPDARAAVDTVLRRPPLVVLAGDVGSGKTELAETIGDAVARQEDIDITLYPLSLATRGQGRVGEMTQLVSAAFDYTIEAADKLKNTNGKARGAVLLLIDQADALAQSRENAQMHHEDRAGVNAFIRGIDRIANQKLPAAVLMCTNRLKALDPAVQRRAAEILTFSRPNDEQRHYLLHSKLTGLGLNSTAVEELVRLTGPRDPNSPGFTFSDITQRLIPSIILAAYPYNAVSVHSALQVVNKMTPTPAFIDRQ
B2: Ec HORMA (purified, coexpressed with CdnC) (natural protein, E. coli MS115-1, UniProt D7Y2H3 1-172, looked up)
chain: T1 sequence (looked up) 2

What was measured:
[1] = molecular target: Rhizobiales sp. Pch2 (Rhizobiales sp.); assay: crystal structure
[2] = molecular target: Pa CdnD (purified, in complexes with HORMA proteins) (P. aeruginosa ATCC27853) (UniProt P0DTF7); assay: SEC-MALS
[3] = molecular target: Pa HORMA2, untagged, coexpressed (P. aeruginosa ATCC27853); assay: SEC-MALS
[4] = molecular target: T1, Ec CdnC:HORMA complex (purified); assay: SEC-MALS
SEC-MALS = molecular target: the molecule itself; assay: SEC-MALS
[5] = molecular target: T2, Ec CdnC (purified, coexpressed with …); assay: SEC-MALS
[6] = molecular target: B1; assay: crystal structure

Chain of Pa CdnD (purified, in complexes with HORMA proteins) (P. aeruginosa ATCC27853) (P0DTF7 whole entry, one chain of several): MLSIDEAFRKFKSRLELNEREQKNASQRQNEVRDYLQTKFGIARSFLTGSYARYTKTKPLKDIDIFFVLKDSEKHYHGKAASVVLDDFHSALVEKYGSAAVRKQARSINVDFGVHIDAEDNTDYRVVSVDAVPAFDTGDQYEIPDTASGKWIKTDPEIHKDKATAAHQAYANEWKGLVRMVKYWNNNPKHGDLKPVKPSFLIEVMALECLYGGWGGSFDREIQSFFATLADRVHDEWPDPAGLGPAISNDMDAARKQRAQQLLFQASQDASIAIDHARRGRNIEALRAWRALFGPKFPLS
Chain of Pa HORMA2, untagged, coexpressed (P. aeruginosa ATCC27853) (P0DTF6 whole entry): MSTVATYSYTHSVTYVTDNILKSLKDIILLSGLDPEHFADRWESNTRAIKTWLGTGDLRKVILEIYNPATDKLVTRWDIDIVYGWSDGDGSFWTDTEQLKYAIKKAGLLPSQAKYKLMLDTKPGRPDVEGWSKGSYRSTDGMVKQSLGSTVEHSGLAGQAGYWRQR

stoichiometry N [1]: 6
Molecule: Rhizobiales sp. Pch2 (enzyme)

Molecule: Pa HORMA1 (purified, SEC-MALS samples) (natural protein)
stoichiometry N ([2]; scale: CdnD per HORMA1 in the 2:1:1 CdnD:HORMA1:HORMA2 complex): 2
stoichiometry N (HORMA1:HORMA2) [3]: 1
stoichiometry N ([3]; scale: HORMA1 per HORMA2 in the 2:1:1 CdnD:HORMA1:HORMA2 complex): 1

Molecule: Pa HORMA2, untagged, coexpressed (natural protein)
stoichiometry N [2]: 1 CdnD:HORMA2
stoichiometry N ([2]; scale: CdnD per HORMA2 in the 2:1:1 CdnD:HORMA1:HORMA2 complex): 2

Molecule: B1
stoichiometry N [4]: 6 Pch2^EQ chains per CdnC:HORMA
stoichiometry N (SEC-MALS): 6

Molecule: B2
stoichiometry N [5]: 1 CdnC:HORMA
binding result [6]: binds
